The target in this experiment is T1, dopamine D2 receptor (mouse (endogenous in C57BL/6 brain slices)), P61168.
T1 chain: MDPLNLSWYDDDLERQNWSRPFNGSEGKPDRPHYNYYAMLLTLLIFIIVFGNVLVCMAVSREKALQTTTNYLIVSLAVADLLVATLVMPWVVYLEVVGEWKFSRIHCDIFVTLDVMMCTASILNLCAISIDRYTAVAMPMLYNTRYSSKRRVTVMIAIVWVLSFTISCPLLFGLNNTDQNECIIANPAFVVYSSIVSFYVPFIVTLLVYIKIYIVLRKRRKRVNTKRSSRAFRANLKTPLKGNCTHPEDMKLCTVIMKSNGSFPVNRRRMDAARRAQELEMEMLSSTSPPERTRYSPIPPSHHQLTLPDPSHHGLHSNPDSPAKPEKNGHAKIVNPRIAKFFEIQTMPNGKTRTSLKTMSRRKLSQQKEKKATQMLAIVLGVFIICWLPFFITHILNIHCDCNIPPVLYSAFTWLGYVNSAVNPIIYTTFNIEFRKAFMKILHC
Kind of experiment: proximity ligation. As to conditions: remark: other sources report otherwise.

B1: dopamine D1 receptor, Q61616 1-446 (receptor)
chain: MAPNTSTMDETGLPVERDFSFRILTACFLSLLILSTLLGNTLVCAAVIRFRHLRSKVTNFFVISLAVSDLLVAVLVMPWKAVAEIAGFWPFGSFCNIWVAFDIMCSTASILNLCVISVDRYWAISSPFQYERKMTPKAAFILISVAWTLSVLISFIPVQLSWHKAKPTWPLDGNFTSLEDAEDDNCDTRLSRTYAISSSLISFYIPVAIMIVTYTSIYRIAQKQIRRISALERAAVHAKNCQTTTGNGNPVECSQSESSFKMSFKRETKVLKTLSVIMGVFVCCWLPFFISNCMVPFCGSEETQPFCIDSITFDVFVWFGWANSSLNPIIYAFNADFQKAFSTLLGCYRLCPTTNNAIETVSINNNGAVMFSSHHEPRGSISKDCNLVYLIPHAVGSSEDLKREEAGGIPKPLEKLSPALSVILDYDTDVSLEKIQPVTHSGQHST
B1 registered a PLA dots per µm^2 of 0.283 dots/µm^2.

(Values after publication PMC4390438.)
